The data set deals with SmpO45 (Staphylococcus aureus plasmid pWBG745). The data set can be described thus: SPR. Conditions: SPR: 10 mM HEPES, 150-300 mM NaCl, 3 mM EDTA, 0.05% Tween 20, 1 uM protein (pH, temperature not given); EMSA: Li-Cor binding buffer, 0.5 ug/ul herring sperm …. For orientation: Mobility shift assays separate free from complexed probe on a gel.

Turning to “GACACTATAGTTTATTGTGGGGTCACTTTA / TAAAGTGACCCCACAATAAACTATAGTGTCCCTACCCTACGTCCTCCTGC [OT45.3]”, the binding signal turned out to be 30 % Rmax.
The same measure for “TTTATTGTGGGGTCACTTTAAATTCTTTAA / TTAAAGAATTTAAAGTGACCCCACAATAAACCTACCCTACGTCCTCCTGC [OT45.4]”: 30 % Rmax; for “CCCCATAAAATATGGGGTCATATTTCCCTT / AAGGGAAATATGACCCCATATTTTATGGGGCCTACCCTACGTCCTCCTGC [OT45.10]”: 30 % Rmax.

(Values after article PMC8136818.)
